Experimental data as given in article PMC11784651 (mAbs, 2025).

B1: anti-CD38 B6-D9 Fab (Fab, V domains shown)
VH: QVQLVQSGAEVKKPGSSVKVSCKASGGFFSHYIINWVRQAPGQGLEWMGRVIPVIDDAYYAQKFQGRVTITADESTSTAYMELSSLRSEDTAVYYCARSRGYYGSFYFDIWGQGTLVTVSS
VL: not shown
B2: anti-CD38 E2-RecA Fab (Fab, V domains shown)
VH: QVQLVQSGAEVKKPGSSVKVSCKASGLPDATYAIGWVRQAPGQGLEWMGRIIPRLDAEHYAQKFQGRVTITADESTSTAYMELSSLRSEDTAVYYCARGLGYYLYSSYYFDIWGQGTLVTVSS
VL: not shown

Molecular target: human CD38 extracellular domain (hsCD38 ECD) used for crystallization (Homo sapiens, stabilised)
Test: crystal structure

Binder	binding result
B1	binds
B2	binds
